Laboratory results as given in patent US20100081795A1 (Bayer, published 2010).

Molecular target: T1, purified, native RG1 protein produced in transfected BHK cells (human, UniProt Q9BUD6 27-331)
T1 construct: also called BHK-RG1; nRG1
T1 chain: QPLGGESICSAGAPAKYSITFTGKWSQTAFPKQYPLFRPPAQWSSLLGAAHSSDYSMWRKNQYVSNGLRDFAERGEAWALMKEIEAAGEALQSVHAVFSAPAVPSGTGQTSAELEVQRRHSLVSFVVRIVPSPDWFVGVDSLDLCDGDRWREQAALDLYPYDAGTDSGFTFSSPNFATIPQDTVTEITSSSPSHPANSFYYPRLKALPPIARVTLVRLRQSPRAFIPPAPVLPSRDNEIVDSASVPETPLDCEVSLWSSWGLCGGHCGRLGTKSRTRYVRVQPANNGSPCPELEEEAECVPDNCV
Test: BIAcore SPR; mab captured on anti-human IgG Fc, soluble BHK-RG1 12.5-400 nM; 1:1 Langmuir fit
Protocol: Kinetic constants (KD, kₐ and kd) of mab binding to native RG1 protein were determined by BIAcore using a capture format in which soluble, native RG1 protein was bound to immobilized mab on a sensor chip. ImmunoPure rabbit anti-human IgGFc (Pierce, 31142) was covalently immobilized to the Sensor Chip CM5 (Biacore, BR-1000-12) using standard amine coupling methods. 100 ug/ml antibody diluted in 10 mm acetate, pH 4.0 was used at 5 ul/min. HBS-EP (Biacore, BR-1001-88) was used as mobile phase. Unreacted sites were blocked with ethanolamine. Mabs were diluted to 200 nM with HBS and 50 μl was injected per cycle at 10 ul/min. Serial dilutions of BHK-RG1 (12.5-400 nM) were bound to the immobilized mab. Dissociation kinetics were measured immediately after the antigen injection was completed at 20 μl/min for 8 minutes. The surface was regenerated following each cycle using 25 ul of 10 mm glycine, pH 1.8 and then washed with HBS.
Typically, five concentrations and a media control were run. Data were fit to a 1:1 Langmuir model using the software provided by the instrument manufacturer (BIAevaluation 3.0), and kinetic constants were calculated. Equilibrium constants were in the nanomolar range with favorable dissociation rates (10⁻⁴ s⁻¹).

Kd: 8.4 nM
koff: 0.00023 s⁻¹
kon: 29000 M⁻¹ s⁻¹
B1: human RG1 monoclonal antibody B (antibody, V domains shown)
VH: EVQLVQSGGGLVHPGGSLRLSCAGSGFTFSSYVMHWLRQAPGKGLEWVSVIGTGGVTHYADSVKGRFTISRDNAKNSLYLQMNSLRAEDMAMYYCARWGYYGSGSYENDAFDIWGQGTMVTVSS
VL: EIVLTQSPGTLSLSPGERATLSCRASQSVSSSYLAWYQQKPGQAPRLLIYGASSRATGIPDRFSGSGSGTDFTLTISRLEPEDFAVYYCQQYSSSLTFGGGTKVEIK
notes: Hybridoma-derived human antibody with a kappa light chain; also called Mab B
